For the experiment, the target named is SARS-CoV-2 RBD (residues 319-591) (SARS-CoV-2, Wuhan-Hu-1 (MN908947), UniProt P0DTC2). The experiment is described as follows: SPR. For orientation: In SPR one partner is held on a chip, and binding of the other changes the refractive index at the surface.

Consider one molecule from paper PMC12910678 (Nature, 2021).

B1: C121 IgG (antibody, V domains shown)
VH: not shown
VL: QSALTQPASVSGSPGQSITISCTGTSSDVGSYNLVSWYQQHPGKAPKLMIYEGSKRPSGVSNRFSGSKSGNTASLTISGLQAEDEADYYCCSYAGSSTLVFGGGTKLTVL
On to B1, for which the binding result was “binds”.
